# Measured values taken from patent US20250171534A1 (D2M BIOTHERAPEUTICS, published 2025).
# Changes are numbered by the printed parent chain.
# B1: #16 (antibody, human IgG1, V domains shown)
# VH: EVQLQQSGAELMKPGASVKISCKATGNTFSSYWIEWVKQRPGHDLEWIGEILPGSGSTNYNEKFKGKATFTADTSSNTAYMQLNSLTSEDSAVYYCARSGAGGYDSGAFAYWGQGTLVTVSA
# VL: DIEMTQSPASLAVSLGQRATISCRASESIDSYGNSFMHWYQQKPGQPPKLLIYRTSNLESGIPARFSGSGSRTDFTLTINPVEADDVATYYCQQSNEDPWTFGGGTKLEIK
# notes: also called D2M002-016
# B2: #8 (antibody, human IgG1, V domains shown)
# VH: B1 VH with S7P, N27Y, Y32S, I34T, D44G, N84S
# VL: B1 VL with E3V, M4L, S31T
# notes: also called D2M002-008
# B3: #22 (antibody, human IgG1, V domains shown)
# VH: B1 VH with E1Q, N27Y, F29L, D44G, N84S
# VL: B1 VL with E3V, M4L, I29V, S31T
# notes: also called D2M002-022
# B4: #11 (antibody, human IgG1, V domains shown)
# VH: B1 VH with N27Y, S31N, D44G, N59D, K65E, N84S
# VL: B1 VL with E3Q, I29V, S31T
# notes: also called D2M002-011
# B5: #27 (antibody, human IgG1, V domains shown)
# VH: B1 VH with A24I, N27Y, T69S
# VL: B1 VL with E3V, M4L, I29V, S31T
# notes: also called D2M002-027
# B6: D2M002-122 (antibody, V domains shown)
# VH: QVQLVQSGAEVKKPGASVKVSCKASGYTFTSYWIEWVRQAPGQGLEWIGEILPGEGSTNYNAKFKGRVTFTTDTSTSTAYMELRSLRSDDTAVYYCARSGAGGYDSGAFAYWGQGTLVTVSS
# VL: AIQLTQSPSSLSASVGDRVTITCRASESVDTYGNSFMHWYQQKPGKAPKLLVYRTSNLESGVPSRFSGSGSGTDFTLTISSLQPEDFATYYCQQSNEDPWTFGGGTKVEIK
# B7: D2M002-124 (antibody, V domains shown)
# VH: B6 VH with E55S
# VL: B6 VL
# B8: D2M002-101 (antibody, V domains shown)
# VH: QVQLVQSGAEVKKPGASVKVSCKASGYTFTRYVMHWVRQAPGQRLEWMGWINPNNEETKYSQKFKGRVTLTRDTSASTAYMELSSLRSEDTAVYYCARADLEILPYYDHARNAMDYWGQGTLVTVSS
# VL: DIQMTQSPSSVSASVGDRVTITCRASENIYSHLAWYQQKPGKAPKLLVYNAKSLQSGVPSRFSGSGSGTDFTLTISSLQPEDFATYYCQHFWSTPPTFGGGTKVEIK
# notes: humanized and optimized variant tested beside D2M002-002; also called P211_A12
# B9: #3 (antibody, human IgG1, V domains shown)
# VH: QIQLLQSGPELVKPGASVKMSCKASGYTFTRYVMYWVKQKPGQGLEWIGYINPDNDGTKYNEKFKGKATLTSDKSSSTAYMELSSLTSEDSAVYYCARGDLELLPYYDYVRNAMDYWGQGTSVTVSS
# VL: DIQMTQSPASLSASVGETVTITCRASGNIHNYLAWYQQKQGKSPQLLVYNAKTLADGVPSRFSGSGSGTQYSLKINSLQPEDFGSYYCQHFWSTPPTFGGGTKLEIK
# notes: also called D2M002-003
# B10: #21 (antibody, human IgG1, V domains shown)
# VH: B1 VH with E1Q, N27S, D44G, N84S
# VL: B1 VL with E3V, M4L, I29V, S31T
# notes: also called D2M002-021
# B11: #28 (antibody, human IgG1, V domains shown)
# VH: B1 VH with N27Y, D44G, N84S, A122S
# VL: B1 VL with E3V, I29V, S31T
# notes: also called D2M002-028
# B12: #41 (antibody, human IgG1, V domains shown)
# VH: DVQLQQSGAELMKPGASVKISCKATGYTFSSSWIEWVKQRPGHGLEWIGEILPGSGNTSYNEKFKGKATFTADTSSSAAYMQLSSLTSEDSAVYYCARSGLYYDYGGFAYWGQGTLVTVSA
# VL: B1 VL with E3V, M4L, I29V, S31T, W100F, G104S
# notes: also called D2M002-041
# B13: #18 (antibody, human IgG1, V domains shown)
# VH: B1 VH with A24T
# VL: B1 VL with E3V, M4L, I29V
# notes: also called D2M002-018
# B14: #40 (antibody, human IgG1, V domains shown)
# VH: B1 VH with A24T, S55R, Y60N, T69P, A101G
# VL: B1 VL with E3V, M4L, I29V, S31T
# notes: also called D2M002-040
# B15: #20 (antibody, human IgG1, V domains shown)
# VH: B1 VH with E1Q, L4F, A9V, S31N
# VL: B1 VL with E3V, I29V
# notes: also called D2M002-020
# B16: #35 (antibody, human IgG1, V domains shown)
# VH: B1 VH with E1Q, K19R, N27Y, Y32S, D44G, N84S, A110T
# VL: B1 VL with E3V, M4L, S31T, T55A
# notes: also called D2M002-035
# B17: #31 (antibody, human IgG1, V domains shown)
# VH: QVQMQPFGAELMKPGASVRISCKATGYTFSSSWIEWVKQRPGHGLEWIGEILPGSGTTNYNEKFKGKATFTADTSSNTAYMQLSSLTSEDSAVYYCARSGAGGYDSGAFTYWGQGTLVTVSA
# VL: B1 VL with E3V, M4L, S31T, T55A
# notes: also called D2M002-031
# B18: #36 (antibody, human IgG1, V domains shown)
# VH: B17 VH with M4L, P6Q, F7S
# VL: B1 VL with E3V, M4L, S31T, T55A
# notes: also called D2M002-036
# B19: #17 (antibody, human IgG1, V domains shown)
# VH: B1 VH with A24T, T58S
# VL: B1 VL with E3V, M4L, I29V, A64S
# notes: also called D2M002-017
# B20: #29 (antibody, human IgG1, V domains shown)
# VH: B1 VH with L11V, M12K, N27Y, D44G, N84S, S91F, A92T, A110G, A122S
# VL: B1 VL with E3V, S31T, T55A
# notes: also called D2M002-029
# B21: #23 (antibody, human IgG1, V domains shown)
# VH: QVQMQQPGAELMKPGASVKISCKATGYTFSRYWIEWVKQRPGHGLEWIGEILPGDGSTNYNAKFKGQATFTADTSSNTAYMQFSSLTYEDSAVYYCARSGAGGYDSGAFAYWGQGTLVTVSS
# VL: B1 VL with E3V, M4L, I29V, S31T
# notes: also called D2M002-023
# B22: #12 (antibody, human IgG1, V domains shown)
# VH: B1 VH with E1Q, V2I, Q5L, N27Y, S31N, D44G, N84S, A122S
# VL: B1 VL with E3V, M4L, I29V, T89A
# notes: also called D2M002-012
# Molecular target: T1, human LILRB1 expressed on cells (human, UniProt Q8NHL6 24-650)
# T1 construct: In 293T cells it was expressed from pCMV3-LILRB1-GFP; also called CHO-LILRB1; Jurkat-LILRB1
# Assay: flow cytometry, CHO-LILRB1 cells; blocked ligand: APC HLA-G trimer tetramer
# T1 sequence (Q8NHL6 other isoform, or with tags, fused parts or gaps limits assumed): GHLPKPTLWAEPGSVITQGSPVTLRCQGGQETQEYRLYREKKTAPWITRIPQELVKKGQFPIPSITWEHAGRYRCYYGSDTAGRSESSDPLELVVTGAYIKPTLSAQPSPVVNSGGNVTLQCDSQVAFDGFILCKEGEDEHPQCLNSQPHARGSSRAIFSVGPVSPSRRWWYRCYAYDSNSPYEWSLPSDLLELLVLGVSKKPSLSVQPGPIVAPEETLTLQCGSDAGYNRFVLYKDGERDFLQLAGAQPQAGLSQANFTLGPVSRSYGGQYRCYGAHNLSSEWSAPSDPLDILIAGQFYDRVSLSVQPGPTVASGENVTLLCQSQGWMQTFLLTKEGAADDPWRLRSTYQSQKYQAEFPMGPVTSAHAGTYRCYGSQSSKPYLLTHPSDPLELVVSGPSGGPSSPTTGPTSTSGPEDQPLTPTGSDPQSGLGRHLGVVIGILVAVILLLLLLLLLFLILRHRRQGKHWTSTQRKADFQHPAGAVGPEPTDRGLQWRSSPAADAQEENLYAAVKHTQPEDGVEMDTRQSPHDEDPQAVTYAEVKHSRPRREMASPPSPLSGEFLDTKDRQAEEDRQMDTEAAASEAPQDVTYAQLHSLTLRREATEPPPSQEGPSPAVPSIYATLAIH
row,Binder,IC50 [µg/mL]
1,B1,1.18
2,B2,0.26
3,B3,0.758
4,B4,0.367
5,B5,0.569

# Molecular target: T1, human LILRB1 expressed on cells
# Assay: flow cytometry, Jurkat-LILRB1 cells
row,Binder,EC50 [µg/mL]
1,B6,1.6
2,B7,1.86
3,B8,0.201

# Molecular target: T2, human LILRB2 expressed on cells (human, UniProt Q8N423 22-597)
# T2 construct: In 293T cells it was expressed from pCMV3-LILRB2-GFP; also called CHO-LILRB2; Jurkat-LILRB2
# Assay: flow cytometry, Jurkat-LILRB2 cells
# T2 sequence (Q8N423 other isoform, or with tags, fused parts or gaps limits assumed): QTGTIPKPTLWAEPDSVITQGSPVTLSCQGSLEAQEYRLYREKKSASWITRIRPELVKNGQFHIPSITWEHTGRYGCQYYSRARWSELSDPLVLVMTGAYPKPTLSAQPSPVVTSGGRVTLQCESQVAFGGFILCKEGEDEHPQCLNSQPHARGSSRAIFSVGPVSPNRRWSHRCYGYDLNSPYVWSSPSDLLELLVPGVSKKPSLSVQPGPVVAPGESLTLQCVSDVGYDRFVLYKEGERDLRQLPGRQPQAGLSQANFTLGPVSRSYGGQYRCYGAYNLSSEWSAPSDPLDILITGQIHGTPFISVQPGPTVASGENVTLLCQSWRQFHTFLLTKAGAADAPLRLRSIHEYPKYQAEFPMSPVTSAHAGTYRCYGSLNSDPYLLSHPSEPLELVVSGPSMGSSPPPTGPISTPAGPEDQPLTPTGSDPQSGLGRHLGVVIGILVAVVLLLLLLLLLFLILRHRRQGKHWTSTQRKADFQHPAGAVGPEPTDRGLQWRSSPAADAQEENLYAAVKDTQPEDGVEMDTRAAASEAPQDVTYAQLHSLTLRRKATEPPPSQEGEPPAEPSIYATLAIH
row,Binder,EC50 [µg/mL]
1,B6,0.111
2,B7,0.145
3,B8,0.131

# Molecular target: T2, human LILRB2 expressed on cells
# Assay: flow cytometry, Jurkat-LILRB2 cells; blocked ligand: APC HLA-G monomer tetramer
row,Binder,IC50 [µg/mL]
1,B6,0.022
2,B7,0.03
3,B8,0.025

# Molecular target: T2, human LILRB2 expressed on cells
# Assay: flow cytometry, CHO-LILRB2 cells
Binder,EC50 [µg/mL],gMFI (max)
B9,0.058,18500
B10,0.894,25600
B2,0.565,24800
B3,0.911,26300
B4,1.2,21600
B5,0.435,23900
B11,0.836,26600

# Molecular target: T1, human LILRB1 expressed on cells
# Assay: flow cytometry, CHO-LILRB1 cells
row,Binder,EC50 [µg/mL]
1,B1,2.66
2,B2,0.768
3,B3,2.01
4,B4,1.13
5,B5,1.72

# Molecular target: T3, LILRB1-ECD-HIS (SinoBiological Cat #: 16014-H02H) (human, UniProt Q8NHL6 24-461)
# T3 construct: Bought protein; also called monomeric antigen LILRB1-ECD-HIS; not shown: His tag
# Assay: SPR (Carterra LSA), antibody captured, antigen injected;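 further: kd obtained from kinetic analysis of antibody binding to the antigen, with association and dissociation phases fitted in the instrument software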
# T3 sequence (Q8NHL6 other isoform, or with tags, fused parts or gaps H02H H02H): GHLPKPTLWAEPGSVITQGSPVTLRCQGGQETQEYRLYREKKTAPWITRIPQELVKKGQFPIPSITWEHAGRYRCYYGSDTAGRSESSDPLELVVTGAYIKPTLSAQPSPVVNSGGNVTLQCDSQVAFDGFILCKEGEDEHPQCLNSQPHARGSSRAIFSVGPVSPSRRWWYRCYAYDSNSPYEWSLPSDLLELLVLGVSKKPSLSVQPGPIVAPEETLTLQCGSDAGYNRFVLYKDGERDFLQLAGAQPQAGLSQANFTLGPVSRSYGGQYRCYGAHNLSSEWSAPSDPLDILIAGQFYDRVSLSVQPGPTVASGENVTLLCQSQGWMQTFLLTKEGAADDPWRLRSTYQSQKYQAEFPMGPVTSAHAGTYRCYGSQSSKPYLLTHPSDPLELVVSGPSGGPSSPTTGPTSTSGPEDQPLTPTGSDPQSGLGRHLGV
row,Binder,Kd [pM]
1,B9,57100
2,B10,667
3,B12,23200
4,B1,714
5,B2,640
6,B13,1360
7,B14,34400
8,B15,1190
9,B16,10400
10,B17,20000
11,B18,3440
12,B19,1180
13,B20,28700
14,B3,588
15,B4,417
16,B5,556
17,B21,7650
18,B11,882
19,B22,1600

# Molecular target: T4, LILRB2-ECD-HIS (SinoBiological Cat #: 14132-H02H) (human, UniProt Q8N423 22-460)
# T4 construct: Bought protein; also called monomeric antigen LILRB2-ECD-HIS; not shown: His tag
# Assay: as above
# T4 sequence (Q8N423 other isoform, or with tags, fused parts or gaps H02H H02H): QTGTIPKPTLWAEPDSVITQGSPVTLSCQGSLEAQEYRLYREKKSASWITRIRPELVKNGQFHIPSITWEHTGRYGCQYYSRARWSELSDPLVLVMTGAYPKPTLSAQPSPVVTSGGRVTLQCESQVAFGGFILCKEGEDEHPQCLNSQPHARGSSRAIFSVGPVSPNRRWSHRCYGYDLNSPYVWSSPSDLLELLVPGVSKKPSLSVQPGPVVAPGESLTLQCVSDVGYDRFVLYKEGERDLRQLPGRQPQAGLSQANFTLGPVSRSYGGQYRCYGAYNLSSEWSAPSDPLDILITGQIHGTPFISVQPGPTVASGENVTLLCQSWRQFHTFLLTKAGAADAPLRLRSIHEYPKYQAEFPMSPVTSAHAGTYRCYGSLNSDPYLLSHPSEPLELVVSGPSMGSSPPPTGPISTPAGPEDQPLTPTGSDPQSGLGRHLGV
row,Binder,Kd [pM]
1,B9,542
2,B10,100
3,B12,624
4,B1,38.5
5,B2,191
6,B13,52.6
7,B14,3050
8,B15,200
9,B16,617
10,B17,1260
11,B18,145
12,B19,47.6
13,B20,1590
14,B3,32.3
15,B4,21.3
16,B5,48.1
17,B21,636
18,B11,38.5
19,B22,200

# Molecular target: T1, human LILRB1 expressed on cells
# Assay: flow cytometry, Jurkat-LILRB1 cells; blocked ligand: APC HLA-G trimer tetramer
row,Binder,IC50 [µg/mL]
1,B6,0.501
2,B7,0.427
3,B8,0.138

# Molecular target: T1, human LILRB1 expressed on cells
# Assay: flow cytometry, CHO-LILRB1 cells
# Remark: another data set of the same source
Binder,EC50 [µg/mL],gMFI (max)
B9,0.264,29900
B10,2.35,50600
B2,1.08,46500
B3,1.99,49300
B4,1.46,40000
B5,1.02,35700
B11,1.83,40300
